The series in a line: melting temperature; melt of duplexes. As to conditions: sodium 0.0675 M; strand 1 µM.
Take “CGACGTGCTTGATGTGCTG+CAGCACATTGCGCACGTCG ((((((((...((((((((+))))))))...))))))))”: the Tm (as a rule, the temperature at which the thermal transition is half complete) turned out to be 48.1 °C.
Next, “CGACGTGCACCATGTGCTG+CAGCACATGGAGCACGTCG ((((((((.((((((((((+)))))))))).))))))))”: 58.8 °C.
In the case of “CGACGTGCATCATGTGCTG+CAGCACATCACGCACGTCG ((((((((.(.((((((((+)))))))).).))))))))” it was 46.6 °C; in that of “CGACGTGCTTTATGTGCTG+CAGCACATCGGGCACGTCG ((((((((...((((((((+))))))))...))))))))”, 48.3 °C.
In the case of “CGACGTGCGCAATGTGCTG+CAGCACATCAAGCACGTCG ((((((((...((((((((+))))))))...))))))))” it was 53.1 °C; in that of “CGACGTGCAAAATGTGCTG+CAGCACATGCAGCACGTCG ((((((((...((((((((+))))))))...))))))))”, 53.8 °C; in that of “CGACGTGCAGCATGTGCTG+CAGCACATAAGGCACGTCG ((((((((...((((((((+))))))))...))))))))”, 47.6 °C.
For the substance “CGACGTGCTCTATGTGCTG+CAGCACATCAAGCACGTCG (((((((((..((((((((+))))))))..)))))))))”, the Tm stood at 51.1 °C.
Next, “CGACGTGCTTGATGTGCTG+CAGCACATTCGGCACGTCG ((((((((...((((((((+))))))))...))))))))”: 50.1 °C; “CGACGTGCCCAATGTGCTG+CAGCACATGTGGCACGTCG (((((((((..((((((((+))))))))..)))))))))”: 56.2 °C.
Next, “CGACGTGCGCCATGTGCTG+CAGCACATGTGGCACGTCG ((((((((..(((((((((+)))))))))..))))))))”: 54.1 °C; “CGACGTGCAAGATGTGCTG+CAGCACATGCGGCACGTCG ((((((((...((((((((+))))))))...))))))))”: 50.2 °C; “CGACGTGCGCGATGTGCTG+CAGCACATACCGCACGTCG (((((((((..((((((((+))))))))..)))))))))”: 53.8 °C.
In the case of “CGACGTGCCCCATGTGCTG+CAGCACATGCAGCACGTCG ((((((((..(((((((((+)))))))))..))))))))” it was 51.9 °C; in that of “CGACGTGCCTTATGTGCTG+CAGCACATGCAGCACGTCG ((((((((...((((((((+))))))))...))))))))”, 49 °C.
Turning to “CGACGTGCGCTATGTGCTG+CAGCACATGGGGCACGTCG ((((((((.(.((((((((+)))))))).).))))))))”, the Tm amounted to 56.7 °C.
Next, “CGACGTGCCGCATGTGCTG+CAGCACATGAAGCACGTCG ((((((((..(((((((((+)))))))))..))))))))”: 53.8 °C; “CGACGTGCTTTATGTGCTG+CAGCACATGATGCACGTCG ((((((((.(.((((((((+)))))))).).))))))))”: 52.1 °C.
Next, “CGACGTGCGTCATGTGCTG+CAGCACATCCGGCACGTCG ((((((((...((((((((+))))))))...))))))))”: 48.7 °C; “CGACGTGCCACATGTGCTG+CAGCACATGTGGCACGTCG (((((((((((((((((((+)))))))))))))))))))”: 66.4 °C; “CGACGTGCAAGATGTGCTG+CAGCACATCTTGCACGTCG (((((((((((((((((((+)))))))))))))))))))”: 63.8 °C.
As to “CGACGTGCAGGATGTGCTG+CAGCACATCATGCACGTCG (((((((((.(((((((((+))))))))).)))))))))”, the Tm was found to be 60.2 °C.
Consider “CGACGTGCCAGATGTGCTG+CAGCACATTAGGCACGTCG (((((((((..((((((((+))))))))..)))))))))”, for which the Tm stood at 56.2 °C.
Next, “CGACGTGCACAATGTGCTG+CAGCACATAAGGCACGTCG ((((((((...((((((((+))))))))...))))))))”: 46.8 °C; “CGACGTGCTGAATGTGCTG+CAGCACATCTAGCACGTCG (((((((((..((((((((+))))))))..)))))))))”: 53 °C.
Next, “CGACGTGCAGGATGTGCTG+CAGCACATAGGGCACGTCG ((((((((...((((((((+))))))))...))))))))”: 50.3 °C; “CGACGTGCGCAATGTGCTG+CAGCACATGGAGCACGTCG ((((((((.(.((((((((+)))))))).).))))))))”: 60.2 °C; “CGACGTGCTCCATGTGCTG+CAGCACATTTAGCACGTCG (((((((((..((((((((+))))))))..)))))))))”: 49.4 °C.
Next, “CGACGTGCGCTATGTGCTG+CAGCACATCGCGCACGTCG ((((((((((.((((((((+)))))))).))))))))))”: 60.1 °C; “CGACGTGCGCTATGTGCTG+CAGCACATGACGCACGTCG (((((((((..((((((((+))))))))..)))))))))”: 52.4 °C; “CGACGTGCCTTATGTGCTG+CAGCACATGAGGCACGTCG ((((((((((.((((((((+)))))))).))))))))))”: 59.4 °C.
With “CGACGTGCGGGATGTGCTG+CAGCACATCAAGCACGTCG ((((((((..(((((((((+)))))))))..))))))))”, the Tm was 57.6 °C.
Next, “CGACGTGCATGATGTGCTG+CAGCACATCTCGCACGTCG ((((((((..(((((((((+)))))))))..))))))))”: 53.9 °C; “CGACGTGCTTAATGTGCTG+CAGCACATATCGCACGTCG ((((((((...((((((((+))))))))...))))))))”: 48 °C; “CGACGTGCTGTATGTGCTG+CAGCACATAAAGCACGTCG (((((((((.(((((((((+))))))))).)))))))))”: 55.5 °C.
In the case of “CGACGTGCCTGATGTGCTG+CAGCACATGGGGCACGTCG (((((((((..((((((((+))))))))..)))))))))” it was 56.4 °C; in that of “CGACGTGCACGATGTGCTG+CAGCACATATGGCACGTCG ((((((((...((((((((+))))))))...))))))))”, 46.9 °C; in that of “CGACGTGCGTTATGTGCTG+CAGCACATGCGGCACGTCG ((((((((...((((((((+))))))))...))))))))”, 49.6 °C.
Next, “CGACGTGCATGATGTGCTG+CAGCACATTCTGCACGTCG (((((((((..((((((((+))))))))..)))))))))”: 52.9 °C; “CGACGTGCCACATGTGCTG+CAGCACATTCAGCACGTCG ((((((((...((((((((+))))))))...))))))))”: 48.9 °C; “CGACGTGCAATATGTGCTG+CAGCACATGGCGCACGTCG ((((((((...((((((((+))))))))...))))))))”: 50.5 °C.
Turning to “CGACGTGCCATATGTGCTG+CAGCACATTGGGCACGTCG (((((((((..((((((((+))))))))..)))))))))”, the Tm was 55.6 °C.
For the substance “CGACGTGCGGGATGTGCTG+CAGCACATACAGCACGTCG ((((((((.(.((((((((+)))))))).).))))))))”, the Tm is 56.5 °C.
On to “CGACGTGCCTCATGTGCTG+CAGCACATGACGCACGTCG ((((((((.((((((((((+)))))))))).))))))))”, for which the Tm is 52.7 °C.
Next, “CGACGTGCCCTATGTGCTG+CAGCACATAGGGCACGTCG (((((((((((((((((((+)))))))))))))))))))”: 64.4 °C; “CGACGTGCCTAATGTGCTG+CAGCACATCCAGCACGTCG ((((((((...((((((((+))))))))...))))))))”: 48.7 °C; “CGACGTGCGTCATGTGCTG+CAGCACATTCTGCACGTCG ((((((((...((((((((+))))))))...))))))))”: 49.2 °C.
Next, “CGACGTGCTTTATGTGCTG+CAGCACATAGCGCACGTCG ((((((((..(((((((((+)))))))))..))))))))”: 47.9 °C; “CGACGTGCACCATGTGCTG+CAGCACATGAAGCACGTCG ((((((((..(((((((((+)))))))))..))))))))”: 51 °C.
Next, “CGACGTGCGAAATGTGCTG+CAGCACATTTGGCACGTCG ((((((((.((((((((((+)))))))))).))))))))”: 57.3 °C; “CGACGTGCACAATGTGCTG+CAGCACATACGGCACGTCG ((((((((...((((((((+))))))))...))))))))”: 44.7 °C; “CGACGTGCACCATGTGCTG+CAGCACATCCGGCACGTCG ((((((((...((((((((+))))))))...))))))))”: 42.7 °C.
As for “CGACGTGCAGTATGTGCTG+CAGCACATCATGCACGTCG (((((((((..((((((((+))))))))..)))))))))”, the midpoint of thermal melting (Tm) amounted to 51.4 °C.
For “CGACGTGCCTAATGTGCTG+CAGCACATTCCGCACGTCG ((((((((..(((((((((+)))))))))..))))))))”, the Tm came to 49.7 °C.
“CGACGTGCTGCATGTGCTG+CAGCACATTCAGCACGTCG ((((((((((.((((((((+)))))))).))))))))))”: the Tm was 57 °C.
Take “CGACGTGCAAGATGTGCTG+CAGCACATGCTGCACGTCG (((((((((..((((((((+))))))))..)))))))))”: the Tm came out at 51.1 °C.
Next, “CGACGTGCATTATGTGCTG+CAGCACATATAGCACGTCG ((((((((..(((((((((+)))))))))..))))))))”: 52.3 °C; “CGACGTGCCAAATGTGCTG+CAGCACATTTCGCACGTCG ((((((((.((((((((((+)))))))))).))))))))”: 54.1 °C.
In the case of “CGACGTGCGCCATGTGCTG+CAGCACATACTGCACGTCG ((((((((...((((((((+))))))))...))))))))” it was 48.2 °C; in that of “CGACGTGCAGTATGTGCTG+CAGCACATGGTGCACGTCG (((((((((..((((((((+))))))))..)))))))))”, 53.9 °C; in that of “CGACGTGCGTGATGTGCTG+CAGCACATATAGCACGTCG ((((((((...((((((((+))))))))...))))))))”, 52.5 °C.
In the case of “CGACGTGCCGGATGTGCTG+CAGCACATCCAGCACGTCG ((((((((.((((((((((+)))))))))).))))))))” it was 59 °C.
For the substance “CGACGTGCTAGATGTGCTG+CAGCACATACTGCACGTCG ((((((((...((((((((+))))))))...))))))))”, the Tm is 50.9 °C.
Next, “CGACGTGCTATATGTGCTG+CAGCACATGGTGCACGTCG ((((((((...((((((((+))))))))...))))))))”: 47.7 °C.
In the case of “CGACGTGCCCCATGTGCTG+CAGCACATACTGCACGTCG ((((((((...((((((((+))))))))...))))))))” it was 45.9 °C; in that of “CGACGTGCATAATGTGCTG+CAGCACATAAAGCACGTCG ((((((((.(.((((((((+)))))))).).))))))))”, 50.2 °C.

Values taken from the array DNA melting data of Ke et al..
